The values below come from paper PMC4006948 (Molecular cell, 2013).

B1: Cmr4 (TTHB163) (natural protein, Thermus thermophilus HB8 (endogenous), UniProt Q53W06 2-286, looked up)
chain: SHVALLFLHALSPLHAGTGQGIGAIDLPIAREKATGIPYLPGSSLKGVLRDRASAWDRDTLFAVFGPDTENASEHAGAVQVGDAKLLLLPVRSLYGVFALVASPYLLERFRREALMAGLQPPGVPGLQDPTRVLLAPGSRLLGDGEKVYLEDLDLKAQGEEGVAAWERWLAERTEAPVLGRLAVVHDDLMGFLLETATEVVARIRLDDETKTVAKGALWYEESLPAESLLYALVRADRSFRKGKELPPEGVWALFRGVLEEGGGVLQLGGKATVGRGLCRIVVGR
B2: Cmr6 (TTHB165) with a (His)6 tag at its C-terminus (natural protein, Thermus thermophilus HB8, UniProt Q53W04 2-348, looked up)
chain: GRRSALEGVRLPQGKEPHRGLWLDKFLRSARREDTEAKRVLVREAAGIPEPGEYRAFFKRYRGALEALGAEIREARTLSRLVVGLGGEGVLETALTLHRAYGVPYIPGSALKGLASRYAHLYLEGEAWRRDLARFHRGEAQAGLFGTTEEQGLVVFWDALPLPGKWKLHPDILNPHHPDYYGSVKAPPADWDGPKPVPFLSATGTFLLALSPAPGVSPEEAGPWLRAAWRILAWALREEGVGAKTSSGYGRMALEEPASQGEKPLAPGPSPVLQDLLTWARALSYREVPRFLASQAEAILGLSVEEAQALRRALEERGFLRNPQDLKRWRKEHPGLEGVLAKLGLSA
B4: Cmr3 (TTHB161) (natural protein, Thermus thermophilus HB8 (endogenous), UniProt Q53W08 1-361, looked up)
chain: MLIEPRDPLIVRDGRPFTNSPGARAKSLPFPLPQTLAGAYRTRRALLEGLPLPERAEEVLRWGLRGPLLAEEGEGGWRLLAPRPLDALKLGEALYPLRPLELPQGAGTNLPEGLSPVGLPSPALKEKPAPLPAFWYWESFLEWLLQDAPAGFAPRGHEGPVPETRTHVALDPAAQTAREGFLFQTSGLEFVRGRRRLALVLWPEGPEPEGVFPLGGERRLAFWQKGGPGVPPLPEEVVAGLLRHRAARLVFLTPAFLGEAYLPKGRAFQGASVVAAVVGRPLAVSGWNLKEGKPKPSRRAVPAGSVYFVRLPEAWGEGEVRDWAEKVWFQNLSEEEQDRRDGFGLAALGLWDGKLRRWEEA
B6: Cmr2 (TTHB160) (natural protein, Thermus thermophilus HB8 (endogenous), UniProt Q53W09 1-584, looked up)
chain: MEHLLAIALGPVQEFIATARRTRDLYAGSRLLSEAAARAAKALAREVGAKNLIFPAPEDEAGLERLAGAGIPNVLLVRVPEGKDPRGLGEQALGAARDYLRERAEEVLGPRRDLLFWREALAQVEDLLEGYYAYLPLEGDYPRARERLMALLAARKNTRDFAPVSWGSPAYKSSLDGARESVLRLPEKEADHLRVRLGLRPGEYLAGPDLLKRWWKAGHGFLSTTHMAALPFWEGVRRAGLEAVLKEALEELGGLVGEEARAEVRHPVLRDTPFGEWDVRLLYESRLEEFPSLAEDPGLLEKARDRLRALWRRLFPKVRVPPGAYYALLHADGDRMGETLDGLPSPEAHRRFSNALALGFAAQVKDIVEAHGGGLVYSGGDDVLALLPLHTALMAARALADRFREAMAPFGREGRAPSLSVGLAVVHHLEPLQDALDLARRAEKWAKEGEPKRNALCVAYSPRSGAERLVRGRWDENPPLTRRLLRYADLLRAGEVPSRAAYELLALVREAGEALSGEALVAEALRILGRKEMKRAYREELEAWLRTGEDVRRLAEELILARPFAEALDQAGVPVESREVWDAH
B7: Cmr1 (TTHB162) (natural protein, Thermus thermophilus HB8 (endogenous), UniProt Q53W07 1-395, looked up)
chain: MRRAFREAFSPRRKEEGGVLVRRDGARVLAWERTYTLLTPLFGGGVEPREADPVSVVRATAVRGHLRFWWRAVRGWRAGGSLERLWELESALFGSAGEGGASPLSVEVEVLREGEKVGIAQYGRAVQWYLGFPLRGDKEWAPVKEGVAFRLRLRFPEKVGELNFWEELEAALWAWETFGGIGARTRRGFGALLPQGAGVPGEEEIREKLRQYGQKAGWPEGVPHLTPKSFVRVVPLSWRELAERYQAFRQARPGGDPRSPGRSYWPEPDGVRRLTGRHAPHHLPRHPVHKFPRAHFGLPIIFHFKDRGDPPDTTLRLKEADRRASPLLFRPLGEGQKPCVVAVLEGARFPGEKLVLEGKDGRTWDVDPWLTPEEAQKIPVLGGEVDPVLAFVKSL

Data set [1] deals with B2. Nature of the data set: native MS.
Data set [2] deals with the molecule itself. Nature of the data set: negative-stain electron microscopy, single particle reconstruction.
The data set “Cmr1 (TTHB162)” addresses B7. The data set is described as follows: affinity purification with mass spectrometry.
Data set [3] has as its target B6. The data set is described as follows: affinity purification with mass spectrometry.
The target of the data set “Cmr3 (TTHB161)” is B4. The data set is described as follows: affinity purification with mass spectrometry.
Data set [4] addresses T1, recombinant Cmr2 (TTHB160), no tag (Thermus thermophilus HB8, UniProt Q53W09 1-584).
T1 sequence (looked up): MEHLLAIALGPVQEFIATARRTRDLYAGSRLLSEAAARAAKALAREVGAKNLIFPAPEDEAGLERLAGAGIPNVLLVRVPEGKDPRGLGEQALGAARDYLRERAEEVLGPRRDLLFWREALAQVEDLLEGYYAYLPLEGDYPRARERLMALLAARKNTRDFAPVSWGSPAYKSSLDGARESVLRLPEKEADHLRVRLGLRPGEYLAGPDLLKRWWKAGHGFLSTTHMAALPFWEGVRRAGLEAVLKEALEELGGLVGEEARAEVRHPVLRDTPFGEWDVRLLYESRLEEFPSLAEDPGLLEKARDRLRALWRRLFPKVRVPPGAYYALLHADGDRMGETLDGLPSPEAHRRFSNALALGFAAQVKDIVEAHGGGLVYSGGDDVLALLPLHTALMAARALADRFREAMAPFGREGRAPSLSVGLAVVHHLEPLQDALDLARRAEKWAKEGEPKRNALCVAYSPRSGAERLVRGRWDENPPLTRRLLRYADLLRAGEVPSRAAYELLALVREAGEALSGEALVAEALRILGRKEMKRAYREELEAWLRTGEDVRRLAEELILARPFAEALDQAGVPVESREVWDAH
Nature of the data set: native MS.

In data set [5] the target is B6. Nature of the data set: negative-stain electron microscopy, single particle reconstruction.
In the data set “Cmr4 (TTHB163)” the target is B1. The data set is described as above.

A word on the stoichiometry N: it is a count of units in the complex or per binding partner.

On to B1, for which the “stoichiometry N” value in data set [1] is 4 copies per Cmr6; in data set [2], 4.

With B2, the binding result with Cmr1 (TTHB162), in the data set with Cmr2 (TTHB160) [3] and in the data set with Cmr3 (TTHB161) was “binds” in each case.

B3: recombinant Cmr3 (TTHB161), no tag (natural protein, Thermus thermophilus HB8, UniProt Q53W08 1-361, looked up)
chain: MLIEPRDPLIVRDGRPFTNSPGARAKSLPFPLPQTLAGAYRTRRALLEGLPLPERAEEVLRWGLRGPLLAEEGEGGWRLLAPRPLDALKLGEALYPLRPLELPQGAGTNLPEGLSPVGLPSPALKEKPAPLPAFWYWESFLEWLLQDAPAGFAPRGHEGPVPETRTHVALDPAAQTAREGFLFQTSGLEFVRGRRRLALVLWPEGPEPEGVFPLGGERRLAFWQKGGPGVPPLPEEVVAGLLRHRAARLVFLTPAFLGEAYLPKGRAFQGASVVAAVVGRPLAVSGWNLKEGKPKPSRRAVPAGSVYFVRLPEAWGEGEVRDWAEKVWFQNLSEEEQDRRDGFGLAALGLWDGKLRRWEEA
Regarding B3, the binding result in data set [4] is “binds”.

For B4, the “stoichiometry N” value in data set [1] was 1 copies per Cmr6. In the data set with Cmr2 (TTHB160) [5], the binding result is reported as “binds”.

B5: Cmr5 (TTHB164) (natural protein, Thermus thermophilus HB8 (endogenous), UniProt Q53W05 1-114, looked up)
chain: MRTRSQVWAQKAYEKVREAAKGEGRGEYRDMALKLPVLVRQAGLSQALAFVDSRGKEAHKALGNDLAQVLGYRDLRELAEAAREAELLQYLRLTREVLAAAEWFKRFAQALIEE
In the case of B5, in data set [1], the “stoichiometry N” value is 3 copies per Cmr6. The binding result in the data set with Cmr4 (TTHB163) was “binds”.

In the case of B6, the “stoichiometry N” value in data set [1] was determined as 1 copies per Cmr6.

As for B7, the “stoichiometry N” value in data set [1] is 1 copies per Cmr6.
